Target: NFS1 as crystallised in the (NIAU2)2 complexes (human)
Test: crystal structure; (NIAU2)2 complexes with wild-type or mutant ISCU2, 16-18 mg/ml, sitting drop, 0.1 M MES pH 6.5, 22.5% PEG-400, 15 °C; space group P41212; 1.57-1.95 Å

stoichiometry N: 2
Substance: NFS1 as crystallised in the (NIAU2)2 complexes (enzyme)
